According to the supplement of paper PMC11865577:

Legend:
Experiment in all cases: pull-down binding Z-score (relative to library population); higher = stronger binding
[1] = tested on: TO-3-N3-2 (biotin conjugate); details: RNA library: Library-2
In short: (§1)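 To score binding, a beads-only signal was subtracted, barcoded replicate probes were averaged with the highest and lowest dropped, and the value was converted to a Z-score using the library mean and standard deviation. The input was 1 μg of Cy5- or Cy3-end-labelled RNA library, heat-folded in phosphate/NaCl/KCl buffer and mixed for 60 min at 25 °C with streptavidin beads carrying 100 pmol of biotin-conjugated small molecule. Bound RNA was eluted in hot SDS and hybridised to a DNA barcode microarray at 55.5 °C for 20 h.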

[2] = tested on: TO-3-N3 (biotin conjugate); details: RNA library: Library-2
In short: as §1

[3] = tested on: G-clamp-N3 (biotin conjugate); details: RNA library: Library-1 (pre-miRNA loops + repeats)
In short: as §1

[4] = tested on: TO-N3-2 (biotin conjugate); details: RNA library: Library-2
In short: as §1

TO-N3 (biotin conjugate) = details: RNA library: Library-2
In short: as §1

Sequence | pull-down binding Z-score [1] | pull-down binding Z-score [2] | pull-down binding Z-score [3] | pull-down binding Z-score [4] | pull-down binding Z-score (TO-N3 (biotin conjugate))
GAGAGAGUGCACAGCCAGCUCAGGGAUUAAAGCUCUUUCUCUCUCUCUC [hsa-mir-7110] | 0.535 | -0.181 | -0.385 | 1.09 | 0.311
UGGAGCCAGGGGGCCCAGGUCUACAGCUUCUCCCCGCUCCC [hsa-mir-6752] | -0.105 | -0.138 | -0.438 | 1.2 | 0.328
CCCAUAUGGAUUACUUUGCUAUGGA [hsa-mir-206] | -0.188 | 0.0156 | -0.287 | 0.0791 | 0.036
AUACUGGAGCAAUAGAUACAGUU [hsa-mir-3692] | -0.389 | -0.727 | -0.223 | -0.353 | -0.663
GCUUUUCACCUGUGAUCCCAGGAGAGGAAGC [hsa-mir-646] | -0.0622 | -0.299 | -0.741 | 0.422 | -0.0302
CGUGCAAGUUUAAGUUUUUGCACG [hsa-mir-4445] | -0.0878 | 0.314 | 0.55 | -0.688 | 0.282
GGAACACUAUAUUAAUCAGGUUUCC [hsa-mir-6509] | -0.256 | -0.609 | -0.0674 | -0.706 | -0.631
UCGAGAGGUCAGAGGAUUGCUCCUGA [hsa-mir-5585] | -0.227 | 0.00526 | 3.56 | 1.67 | 0.496
UAGAGGGUAAAAUUAAUAACCUUCUA [hsa-mir-628] | 0.114 | 0.214 | 0.0533 | -0.888 | -0.152
UCCACCUAGACGGGCCUGGGUCAA [hsa-mir-4698] | -0.0391 | 0.349 | -0.781 | 0.907 | 0.552
GUGAGGUAUUUUAGUAACAUCAC [hsa-mir-125b-2] | -0.536 | -0.818 | 0.629 | -0.794 | -0.969
UGCUUCCACAUAGCAGCA [hsa-mir-4752] | -0.24 | -0.423 | -0.248 | -0.597 | -0.62
GUCUUGGGGUGGGGGAUCAAGAC [hsa-mir-642a] | 2.9 | 2.99 | 0.431 | 1.89 | 2.61
UGUGGCCUGGGGGUUGAGGACCCCUGCUCUA [hsa-mir-645] | 0.303 | 0.874 | 1.32 | 2.75 | 1.74
CUGUGGUGGCUGCUCAUGCACCACGG [hsa-mir-105-1] | -0.574 | -0.868 | 1.44 | -0.558 | -1.05
UUGUGGCAAUACAG [hsa-mir-8068] | -0.166 | -0.437 | 0.635 | -0.0186 | -0.425
GUGGUGGGCACUGCUGGGGUGGGCACAGCAGCCAUGCAGAGCGGGCAUUUGACCCCGUGCCACCCUUUUCCCCAG [hsa-mir-1227] | 1.89 | 2.64 | 0.221 | 2.64 | 3.14
UUUGCCGUCGAAAAUAAUGGCAAA [hsa-mir-548am] | -0.146 | -0.422 | -0.204 | -0.502 | -0.71
CCAGGCCACAUAAUGAGCCAAA [hsa-mir-6771] | 0.198 | 0.665 | -1.04 | 0.607 | 0.899

Sequence | pull-down binding Z-score [1] | pull-down binding Z-score [2] | pull-down binding Z-score [3] | pull-down binding Z-score [4] | pull-down binding Z-score (TO-N3 (biotin conjugate))
CUCAUGUAAACUAAAACAUGAU [hsa-mir-508] | -0.244 | 0.0647 | -1.91 | -0.891 | -0.229
UGUUGACUGAAUAAUAAACA [hsa-mir-3139] | -0.319 | -0.946 | -1.29 | -0.846 | -1.23
GGACUUGCGGUUCA [hsa-mir-8057] | -0.281 | -0.0023 | -1.11 | 0.109 | -0.0278
UAGGCUGUGCAGGUCCCAAUGGGCCUA [hsa-mir-26a-1] | -0.0454 | 0.169 | 1.56 | 0.528 | 0.151
CACUCCCGGGAUCCCCAGGGAC [hsa-mir-3176] | -0.144 | 0.149 | -1.23 | 0.68 | 0.25
GCCCUGGGCCGGGCGAUGUCCGCUUGGGGG [hsa-mir-6090] | 0.149 | 0.811 | -0.223 | 1.41 | 1.11
AGCAUCUGAAUGGGUACAGUUGUUGU [hsa-mir-6818] | -0.0469 | 0.0263 | -0.405 | -0.225 | 0.0834
CGUGCUCAGCUUGGCACCCAAGUUCUGC [hsa-mir-7704] | -0.12 | -0.129 | -0.0193 | 1.39 | 0.485
AUGCCCCAGGUGACGUGCUGGGCU [hsa-mir-4526] | 0.0558 | 0.205 | -0.192 | 0.888 | 0.495
CAGUCAGUAAAUAUUUUUUUGUGAAUG [hsa-mir-511] | 0.0526 | -0.305 | 0.202 | -0.132 | -0.146
AGCUGGGUGGAGGCAGAGCU [hsa-mir-4291] | 1.23 | 2.46 | 1.95 | 1.4 | 2.34
GAAACAUCUUUUAC [hsa-mir-4514] | -0.191 | -0.428 | -0.862 | -0.469 | -0.551
GGCCAUCUGGCC [hsa-mir-4252] | -0.435 | -0.403 | 0.63 | -1.01 | -0.667
UCACAGUUGGUUUCUGACACGUGG [hsa-mir-4535] | -0.0393 | 0.237 | 0.283 | -0.0476 | 0.305
UCUCAAUCCAUUCAUAUUGAAA [hsa-mir-3662] | -0.33 | 0.563 | -1.04 | -0.68 | 0.226
CCACCCACCAGGGAGCUUUCCAUGGGCUGUGGG [hsa-mir-4725] | 0.0654 | 0.47 | 1.47 | 0.788 | 0.567
AUCUUCCUGACCUGGUAAUAAUUAGGUGAGAAGGAU [hsa-mir-8069-2_8069-1] | -0.589 | -0.958 | 0.78 | -1.12 | -1.2
UCAGCUGUGAGCUCAAGGUGGCUGG [hsa-mir-30c-1] | 0.093 | 0.424 | 1.32 | 0.98 | 0.804
